# In patent publication US20100291074A1, “CYCLOPHILIN D-AMYLOID BETA INTERACTION POTENTIATES MITOCHONDRIAL DYSFUNCTION IN A TRANSGENIC MOUSE MODEL OF ALZHEIMER'S DISEASE” (COLUMBIA UNIVERSITY IN THE CITY OF NEW YORK, priority 2007, published 2010):
# Molecular target: Aβ (amyloid beta peptide, length and aggregation state not specified; ˜4 kDa band) (UniProt P05067)
# Experiment: cell-based or functional assay
substance,measurement,value
"mouse CypD, endogenous, in brain mitochondria and cultured cortical neurons of nonTg and Tg mAPP mice (from UniProt Q99KR7 30-206) (enzyme)","mitochondrial ROS (MitoSox staining) in brain slices, Tg mAPP/CypD-/- versus Tg mAPP mice",80%
